assay: soluble on expression in E. coli; label from the status in PepcDB or PDB records

Row | Sequence | soluble on expression in E. coli
1 | MGSDKIHHHHHHVGFLDGLMGGKQAPLVGLDISSSSVKLVELGQSASGQYVLERFATESFERGWIADGQIEKFDEVADAVRRVVSKSGTRSKRVAMAMPQSAVITKKIMLPAGLRDEELELQVESEANQYIPFSLDEVSLDFCVVGPSPSSVGDVEVLIAASRKDRVQDRQGLAEAAGLKPVVLDIESHASRLAMMRIVSALPNEGRDALVALFEIGAETTSLKVLRDEELLYDRDQAFGGSQLTQMISRQYGFSFEEAEQKKLASDLPEDYESSLLVPFVDSLAQEIGRALQYFFTSTPHHKVHYVMLGGGTATLPGLKERVTELTGFASMVVNPFEGMRLGSAVRESKLRREAPAYLTACGLAMRRFL | not soluble
2 | MHLAKERSSVSGTLRVGDRSPRIAEVRTALTRLGLLEGTTKNLEQTKSDTFTDSETLFDEDLALALQGFQQARGIIASGEINEITLKLLREASYSLGARVLSFEPNNIFVGDDVVQLQHQLQELGFYTDRVDGRFGELTYTSLVNYQLNYGLNPDGICGPETIRAFGRLGRRITGGSPHALRERERVRDAGPMLAGKRVVIDPGFGGADKGQVVRGPYGDITEEEIIWDLAGRIEGRMIAAGMETIVSRPRQDSPSLKGRADIANAFGADVMISLQCDKYPNDKANGVASFYFGSEMGSSSLTGEMLSGFIQREISARTDLVNCGNHGRTWDLLRITEMPTVEVVLGYLTNPHDVAILTDPEQRDAIAEAIVVAVKRLYLLDDDDQPTGTYRFSEMLEQGLL | not soluble
3 | MSLEKEAFMEKLLSFMKEEAYKPLTVQELEEMLNITEAEEFKELVKALVALEEKGLIVRTRSDRYGIPEKMNLIKGKISAHAKGFAFLLPEDTSLSDVFIPPNELNTAMNGDIVMVRLNSQSSGSRQEGTVIRILERAIQRVVGTYTETRNFGFVIPDDKKITSDIFIPKNGKNGAAEGHKVVVKLTSYPEGRMNAEGEVETILGHKNDPGIDILSVIHKHGLPGEFPADAMEQASSTPDTIDEKDLKDRRDLRDQVIVTIDGADAKDLDDAVTVTKLDDGSYKLGVHIADVSHYVTENSPIDKEALERGTSVYLVDRVIPMIPHRLSNGICSLNPKVDRLTLSCEMTINSQGQVTEHEIFQSVIKTTERMTYSDVNKILVDDDEELKQKYEPLVPMFKDMERLAQILRDKRMDRGAVDFDFKEAKVLVDDEGAVKDVVIRERSVAEKLIEEFMLVANETVAEHFHWMNVPFIYRIHEEPNAEKLQKFLEFVTTFGYVVKGTAGNIHPRALQSILDAVRDRPEETVISTVMLRSMKQAKYDPQSLGHFGLSTEFYTHFTSPIRRYPDLIVHRLIRTYLINGKVDEATQEKWAERLPDIAEHTSSMERRAVDAERETDDLKKAEYMLDKIGEEFDGMISSVTNFGMFVELPNTIEGLVHVSFMTDDYYRFDEQHFAMIGERTGNVFRIGDEITVKVVDVNKDERNIDFEIVGMKGTPRRPRELDSSRSRKRGKPARKRVQSTNTPVSPAPSEEKGEWFTKPKKKKKKRGFQNAPKQKRKKKKEGHHHHHH | soluble
4 | MDCNGSGGSSDDDKPLHHDGGVRMKFFRSVGEVFGYSPFRSLAQHARMCGRAVGLLQQQFEALRRGNYEEVEELREEIDELEHHADQIKEEIRGNVTKSLMLPVDRHDLLEFLKVQDDILNNCEHVGHMVTFRKVSAPEDVWDEFLVLLSKLMEIVNNYEEMVERIMQLVETSFSKKEVNRALEYVPIIEQLEHECDLIQIGLHTKLFNLENSNPLDIQLMVTWVVHLGYVANAAARASDRFRIMILGR | soluble
5 | MSEIDLTSEYSCSKHSKNPETAGEEFDVKVEKIYEDLKNSSIERQEDIPYFPNGEMTRIDIWGPETAEKVFIMIHGGYWLIGNRKKCLAVVHVAQKLGYTVVSVGYDYANKDHVLSKTIVEALEGVQFALKKFKNAKKIVIGGHSVGAHLAFQAVTRIHDPRISGAYLSAGIYKIQELTSTTYGHDLGLTSEEAETCSCDYELMKHVRFPVLIACCRRESPKLYQQNQDFSSQVANAQYKV | not soluble
6 | MSLNPTIQPYQFNIIKEQVAVLLNTYTSVNDATTVKTVQALCAEKINGLFPEEHPAVTILLDKVMDRRLTRARAEKYLDELKETVLPFKEPSTPQVTKVFRKVKKLKIPEWENMDLRNNTYVGWNDAGTQKIFILAYRENKLIGVHGTLSPTIVKGVCSICQTITNVSMFLATTKSGGDGTYTKKGNYICHDSDTCNQQLTQPEYLEAFMENVKAVKEGHHHHHH | soluble
7 | MTDMKVLKMEVMRYNPERDSEPHFETFEVPYDEQTSLLDALGYIKDNLAPDLSYRWSCRMAICGSCGMMVNKVPKLACKTFLREYTAGMKVEALGNFPIERDLVVDMTHFIESLEAIKPYIIGNERLPKDGPNKQTPAQMAKYHQFSGCINCGLCYAACPQFGLNPEFIGPAAITLAHRYNLDNRDHGKKERMPQLNGKNGVWSCTFVGYCSEVCPKHVDPAAAIQQGKIDSAKDFMIAMLKPQ | not soluble
8 | MATEPPKIVWNEGKRRFETEDHEAFIEYKMRNNGKVMDLVHTYVPSFKRGLGLASHLCVAAFEHASSHSISIIPSCSYVSDTFLPRNPSWKPLIHSEVFKSSI | soluble
9 | MGSDKIHHHHHHMSKHVPKATLLTPSDVAFITDANRPVLTHTRNMAAEAGIEPHSHPRGQLLWAAKGLLRVRSENAVWVVPSTHAVWIPCNLPHQVNSETHAHTRNIYIDPSYDVRSLDTQVVMVTMTALMRELVLKLCESSHLMNSGQLHRLGLVAIDELETLDSLDAHLPAGSDPRLSRLIQKLIRHPTVNYTLTELAEMGGASVRTIERLFKAETGLTYRQWRQRFRLLNSLESLSQGESTTRVAHSLGYLSVSSFSAAFKMQFGCTPQDYPQHKPMKSKVNWFPDPVTGNN | not soluble
10 | MSLHPHLNANLEGGVLTLAINRPEAKNALYGELYLWIAKALDEADQNKDVRVVVLRGAEHDFTAGNDMKDFMGFVQNPNAGPAGQVPPFVLLKSAARLSKPLIIAVKGVAIGIGVTILLQADLVFADNTALFQIPFVSLGLSPEGGASQLLVKQAGYHKAAELLFTAKKFNAETALQAGLVNEIVEDAYATAQATAQHLTALPLASLKQTKALMKHDLDQIIECIDHEAEIFMQRVQSPEMLEAVQAFMQKRQPDFSQEGHHHHHH | soluble
11 | AHHHHHHGSLLPDWKIRKEILIEPFSEESLQPAGYDLRVGREAFVKGKLIDVEKEGKVVIPPREYALILTLERIKLPDDVMGDMKIRSSLAREGVIGSFAWVDPGWDGNLTLMLYNASNEPVELRYGERFVQIAFIRLEGPARNPYRGNYQGSTRLAFSKRKKL | soluble
12 | SNAMKRKVQVKNITIGEGRPKICVPIIGKNKKDIIKEAKELKDACLDIIEWRVDFFENVENIKEVKEVLYELRSYIHDIPLLFTFRSVVEGGEKLISRDYYTTLNKEISNTGLVDLIDVELFMGDEVIDEVVNFAHKKEVKVIISNHDFNKTPKKEEIVSRLCRMQELGADLPKIAVMPQNEKDVLVLLEATNEMFKIYADRPIITMSMSGMGVISRLCGEIFGSALTFGAAKSVSAPGQISFKELNSVLNLLHKSIN | soluble
13 | DGTLVVDIDGCISHANPAAETLLAGPEESLVGQQVEAVIPTWDSLTVDDEQADWSELALSVDGQQRFVELEVTPFADRF | not soluble
14 | MDAFSGIAGPLGRASELHRYEGNQTVVFCAGGVGLPPVYPIMREHLRLGNHVTLISGFRAKEFLFWTGDDERVGKLKKEFGDQLSLIYTTNDGSYGVKGFVTGPLEEMMKANQEGKGRSIAEVIAIGPPLMMRAVSDLTKPYGVKTVASLNSLEHHHHHH | soluble
15 | MDWIQCNHCGIKPNQTKLYLTACGHVFCQNCTKAAFNSQCYLCKKPLKVDEINKNLRPDLMELFKDPRQLASDLVNELKQVVAFQAKQREIYVKCKNAEAKKDTERFAEARSKHVEKTQEIEKRKKAFLEDNVKLKNAKEEKNQLMARLKELREQPSQNLSVNKRRSNTRTEPPFSKISRTGPPSVMRKASHEFSLNLRDQSTSKILTSTPLSNIDYSRRDHRNRLFGAGLEHPSPILRQ | soluble
16 | MSNKDIRVVVGMSGGVDSSVTAYLLKEQGYDVIGIFMKNWDDTDENGVCTATEDYNDVIAVCNQIGIPYYAVNFEEQYWDKVFTYFLDEYKKGRTPNPDVMCNKEIKFKAFLEHALKLGADYVATGHYARIRRHDDGHVEMLRGVDNNKDQTYFLNQLSQEQLSKVMFPIGDIEKSEVRRIAEEQNLATAKKKDSTGICFIGERNFKEFLSHYLPAQSGEMLTLNGKKMGQHSGLMYYTIGQRHGLGIGGDGDPWFVVGKNLNDNVLYVEQGFHHDALYSDYLIASDYSFVNPSEIDLEKGFECTAKFRYRQKDTKVYVQRENENSIRVTFAEPVRAITPGQAVVFYNQEVCLGGATIDDVYKNEGQLSYVVLEHHHHHH | soluble
17 | MGSDKIHHHHHHMITSVAVVGCGWFGLPLAKALLSQGLKVTGSKRSPQEAEALSADGITGFALDLETLESEDLSSQTREAITQGLACDAIVINIPPGLRRGDNGYLDRLKRLKALMGTHEYQRIIFISTSGVYPAGGDSSGSGCVESDAKVHSPASETLLAAEALFSGANSADGVSNNHSDGSESNNSCVVVRFAGLIGPKRHPGRFLAGREDVPGGNLAVNMVHLDDCIGAVTLLLKAEGALSPAYNLCAPLHPTKAEFYQKAATQQGLTPPSFIEGDLAEDKRVDGGLITRELNYQYKFTDPLAMLTHC | not soluble
18 | MYNDELIESSKIKWQLFLKGDDDAYAWLYSRYVQQLYQYGCRFTTDTEMVKDCVQDVFVNVYRQKDRYSSPPDNVKIYLMSSLRNSIFNVFNKGNLHDTYISNINYEFDLSVEEKLIETEDETSQKHTVAHLLNTLSPRQREIIYYRFFEGLDYSAICELMGLNYQSAYNLLQRSLSRLREMYGILPFFFLF | not soluble
19 | NGESYNFALNSGYTKLSDNAEVKIAVDKIADLVSNMTVHLMENTEKGDIRIRDELSRKIDINPYSLMTRKTWIYNIVSNLLLYGDGNAIVLPEIKNGLISELKPLDPSLVDFDVRDDSYKIHYKNKTYNPDEVVHFAINPDSEYPFIGTGYRVALKSLVDNLNQATATKKAFMSSKFMPNLIVKVDANAAELSSEKGKNKIEDMYLQRTEEGKPWIIPADLIEIEQVKPLSLNDIAINEAVNIDKKTVAGLLGVPAFFVGVGEFDKNEFNNFINTRIMSIAMIISQTLTRDLLISPTRFFKLNPRSLYSYDITELVAAGGQMVDRIAMDRNELRDWIG | not soluble
20 | MGHHHHHHSHMTSLMDLTLLLARSQPELIEAHTCERIMCCVAQQASEKIDRFRAHAASVFLTLLHFDSPPIPHVPHRGELEKLFPRSDVASVNWSAPSQAFPRITQLLGLPTYRYHVLLGLVVSLGGLTESTIRHSTQSLFEYMKGIQSDPQALGSFSGTLLQIFEDNLLNERVSVPLLKTLDHVLTHGCFDIFTTEEDHPFSVKLLALCKKEIKNSKDIQKLLSGIAVFCEMVQFPGDVRRQALLQLCLLLCHRFPLIRKTTASQVYETLLTYSDVVGADVLDEVVTVLSDTAWDAELAVVREQRNRLCDLLGVPRPQLVPQPGAC | not soluble
21 | MSLTQVIPTSLLQRLSLLFGCAGIVLGTAVANASSPASRDLFEIHVRPTLIKHCIQCHGETEQEGGLKLTSLDAMLAGGDSGPAIVPGNADDSLILEALRFESFEMPPAGQLDDPVVNGFASWIKAGAPWPEDLILTPMPIITEDDRDWWCYQPIADPVVPDVDDDSWCRNEIDRFVLDRLKQENLRPADEATASQLTRRLHFALTGLPPTCPPPSNQQNADSSADDWYEAQLNELLSSPAYGEHQARYWMDLVRYADSDGYNADHARPHAHLYRDYVIRSFNEDKPYDRFVCEQLAGDEIDPGNRDALIGTMYLRHWIYEWNQRDVEGQWQEIISDITETTADVFLAQGLKCARCHDHKFDPLLQRDFFALKAFFTPLLPREDFPVADVATREGHHHHHH | not soluble
22 | MSLQTPMQTVDDLRSVCDELPHSLETFPFDDETLVFKVGYLSKSRMYALTDITQDPLRLSLKVDPERGEELRQAHPQSIAPGYHLNKKHWVTVTLDGTVPAELLGELLRGSYLLVTKKGFTKAERKELGLPDSLEGGSHHHHHH | soluble
